Assay results: article PMC4382112

B1: human recombinant protein C inhibitor (PCI) (natural protein)
chain: EMKKRVEDLHVGATVAPSSRRDFTFDLYRALASAAPSQSIFFSPVSISMSLAMLSLGAGSSTKMQILEGLGLNLQKSSEKELHRGFQQLLQELNQPRDGFQLSLGNALFTDLVVDLQDTFVSAMKTLYLADTFPTNFRDSAGAMKQINDYVAKQTKGKIVDLLKNLDSNAVVIMVNYIFFKAKWETSFNHKGTQEQDFYVTSETVVRVPMMSREDQYHYLLDRNLSCRVVGVPYQGNATALFILPSEGKMQQVENGLSEKTLRKWLKMFKKRQLELYLPKFSIEGSYQLEKVLPSLGISNVFTSHADLSGISNHSNIQVSEMVHKAVVEVDESGTRAAAATGTIFTFRSARLNSQRLVFNRPFLMFIVDNNILFLGKVNRP

Key:
[1] = target: soluble murine EPCR with a C-terminal myc-His tag (murine) (UniProt Q64695); test: ELISA; plate binding assay: soluble murine EPCR (5 μg/ml) captured by immobilised anti-myc monoclonal antibody; murine protein C variants 0 to 1200 nM in TBS-1% BSA, 5mM CaCl2, 0.6mM MgCl2, 2 hours at 37°C with shaking; detected with sheep anti-murine protein C; one-site fit, apparent KD (KD(app)); n = 3
UniProt Q64695, sequence (Q64695 18-214): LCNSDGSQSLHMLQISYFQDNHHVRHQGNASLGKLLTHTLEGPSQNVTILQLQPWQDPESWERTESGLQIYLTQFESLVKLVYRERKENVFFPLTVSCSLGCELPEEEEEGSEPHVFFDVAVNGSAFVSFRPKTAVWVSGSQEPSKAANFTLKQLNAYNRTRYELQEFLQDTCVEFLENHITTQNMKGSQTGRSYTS

[2] = target: human APC(5A) (human)

Row | Kd [1] | inactivation of 20nM human APC variant by 200nM PCI at 37°C, residual APC activity on S-2366 over 0–20 minutes; half-life [2] | Molecule
1 | 129 nM | – | murine protein C(S360A) (natural protein)
2 | 94.3 nM | – | plasma-derived murine protein C (natural protein)
3 | 112 nM | – | recombinant murine wt protein C (natural protein)
4 | – | 4 min | B1
